Assay results as given in US9482663.

Biological target: Anti-CRP antibodies (polyclonal)
Test: SPR (Spreeta chip), anti-CRP antibodies injected over OM layer with Z-domain on gold

Substance: Z-domain of protein A autodisplayed on the E. coli outer membrane as a fusion protein of AIDA-I (from UniProt P38507 212-269; Q03155 840-1286)
- SPR signal: 1.1 A.U
